The assay deals with T1, human ATP5B protein with C-terminal V5 epitope, made in vitro from pcDNA-ATP5B (human, UniProt P06576 1-529, radioisotope-labelled (L-[35S] Pro-mix)).
T1 construct: In vitro transcription and translation (TNT system); about 60 kDa; also called wild type ATP5B
The assay is described as follows: GST pull-down of 35S-labelled in vitro translated human ATP5B with GST-DHFR on beads, autoradiography; condition without MTX-phenformin. As to the method: A 15 μl portion of this human ATP5B protein preparation liquid and 1 μg for each of the GST protein or GST-DHFR, purified on the glutathione Sepharose beads, were mixed and shaken at 4° C. for 1 hour after adding 0.3 ml of buffer A thereto. Thereafter, the protein binding to the GST protein or GST-DHFR on beads was co-precipitated by centrifugation.

T1 sequence (P06576 whole entry): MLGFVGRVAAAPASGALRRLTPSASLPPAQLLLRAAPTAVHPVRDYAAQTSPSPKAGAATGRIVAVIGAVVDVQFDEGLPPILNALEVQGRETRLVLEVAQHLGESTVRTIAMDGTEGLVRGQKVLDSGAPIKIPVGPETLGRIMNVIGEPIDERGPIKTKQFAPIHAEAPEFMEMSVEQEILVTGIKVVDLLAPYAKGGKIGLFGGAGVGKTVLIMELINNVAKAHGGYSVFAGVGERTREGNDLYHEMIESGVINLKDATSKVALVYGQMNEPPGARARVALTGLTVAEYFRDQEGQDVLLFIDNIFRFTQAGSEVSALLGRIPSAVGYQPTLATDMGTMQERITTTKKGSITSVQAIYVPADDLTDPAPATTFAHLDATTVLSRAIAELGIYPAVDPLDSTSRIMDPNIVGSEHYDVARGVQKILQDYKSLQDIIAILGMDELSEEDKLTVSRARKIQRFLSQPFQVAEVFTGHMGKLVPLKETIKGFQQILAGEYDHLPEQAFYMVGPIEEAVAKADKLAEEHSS

B1: GST fusion DHFR protein (other, human, UniProt P00374 1-187, looked up)
chain: MVGSLNCIVAVSQNMGIGKNGDLPWPPLRNEFRYFQRMTTTSSVEGKQNLVIMGKKTWFSIPEKNRPLKGRINLVLSRELKEPPQGAHFLSRSLDDALKLTEQPELANKVDMVWIVGGSSVYKEAMNHPGHLKLFVTRIMQDFESDTFFPEIDLEKYKLLPEYPGVLSDVQEEKGIKYKFEVYEKND
notes: domain: complete length; Expressed in E. coli BL21 and purified on glutathione Sepharose beads (45 kDa); also called GST-DHFR; not shown: GST tag of vector pGEX-6P-1 (Amersham)
With B1, the binding result was “no binding”.

These data come from patent US20090041754A1 (Astellas, published 2009).
